# Source: publication PMC8933513 (2022)
# T1: porcine aminopeptidase N (pAPN) ectodomain, residues 58-961, wild type (pig, UniProt P15145 58-961)
# T1 chain: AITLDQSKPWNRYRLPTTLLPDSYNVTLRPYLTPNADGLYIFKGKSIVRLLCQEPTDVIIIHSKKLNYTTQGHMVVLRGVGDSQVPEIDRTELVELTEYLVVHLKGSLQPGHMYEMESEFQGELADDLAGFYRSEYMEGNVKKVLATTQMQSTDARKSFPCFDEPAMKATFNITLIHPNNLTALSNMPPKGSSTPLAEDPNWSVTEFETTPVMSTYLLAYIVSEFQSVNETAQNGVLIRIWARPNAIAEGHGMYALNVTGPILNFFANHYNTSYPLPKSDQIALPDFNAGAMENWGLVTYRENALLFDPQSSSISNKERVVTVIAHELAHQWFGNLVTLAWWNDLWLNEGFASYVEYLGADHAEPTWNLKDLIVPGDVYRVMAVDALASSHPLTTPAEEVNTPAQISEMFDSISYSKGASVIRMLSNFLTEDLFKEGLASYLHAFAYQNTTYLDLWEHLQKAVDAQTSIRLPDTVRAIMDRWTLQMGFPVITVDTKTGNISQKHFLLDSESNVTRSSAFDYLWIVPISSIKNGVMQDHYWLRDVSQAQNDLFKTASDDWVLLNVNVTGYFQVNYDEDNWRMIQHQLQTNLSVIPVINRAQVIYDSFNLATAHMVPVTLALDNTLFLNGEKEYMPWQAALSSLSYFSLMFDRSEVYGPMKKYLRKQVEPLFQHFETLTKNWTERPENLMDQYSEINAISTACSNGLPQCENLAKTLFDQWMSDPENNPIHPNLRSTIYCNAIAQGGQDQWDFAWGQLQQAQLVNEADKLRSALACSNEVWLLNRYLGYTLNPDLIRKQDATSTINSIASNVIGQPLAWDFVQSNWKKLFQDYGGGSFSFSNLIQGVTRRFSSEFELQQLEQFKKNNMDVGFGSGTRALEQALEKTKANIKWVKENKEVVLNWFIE
# T2: pAPN ectodomain K374A mutant (pig, UniProt P15145 58-961, K374A)
# T2 sequence: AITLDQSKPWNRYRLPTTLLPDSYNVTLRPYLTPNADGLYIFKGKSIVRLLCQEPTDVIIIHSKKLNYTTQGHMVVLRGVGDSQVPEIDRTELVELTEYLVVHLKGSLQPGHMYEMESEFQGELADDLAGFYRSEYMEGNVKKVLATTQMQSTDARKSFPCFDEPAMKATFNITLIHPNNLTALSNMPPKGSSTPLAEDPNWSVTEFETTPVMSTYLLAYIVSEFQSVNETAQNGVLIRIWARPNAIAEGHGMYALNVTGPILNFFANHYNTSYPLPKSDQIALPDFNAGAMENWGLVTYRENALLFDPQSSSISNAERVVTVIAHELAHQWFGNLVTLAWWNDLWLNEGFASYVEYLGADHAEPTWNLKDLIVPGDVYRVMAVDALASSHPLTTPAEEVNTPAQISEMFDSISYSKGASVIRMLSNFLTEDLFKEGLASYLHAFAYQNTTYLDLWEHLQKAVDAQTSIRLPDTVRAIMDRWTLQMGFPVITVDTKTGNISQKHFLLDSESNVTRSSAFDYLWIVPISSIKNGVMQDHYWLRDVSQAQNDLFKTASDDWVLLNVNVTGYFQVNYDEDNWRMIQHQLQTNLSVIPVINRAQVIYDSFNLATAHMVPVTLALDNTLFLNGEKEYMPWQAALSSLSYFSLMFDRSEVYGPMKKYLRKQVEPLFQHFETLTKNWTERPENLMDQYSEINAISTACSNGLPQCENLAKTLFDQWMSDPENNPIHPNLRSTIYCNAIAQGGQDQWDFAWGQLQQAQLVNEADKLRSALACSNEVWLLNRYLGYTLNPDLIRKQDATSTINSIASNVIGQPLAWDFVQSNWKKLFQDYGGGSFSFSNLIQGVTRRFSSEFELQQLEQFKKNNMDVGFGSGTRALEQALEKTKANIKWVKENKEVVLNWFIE
# B1: PDCoV spike (S) protein receptor binding domain (RBD), residues 300-419, wild type (domain or fragment)
# chain: PKLPELEVVQLNISAHMDFGEARLDSVTINGNTSYCVTKPYFRLETNFMCTGCTMNLRTDTCSFDLSAVNNGMSFSQFCLSTESGACEMKIIVTYVWNYLLRQRLYVTAVEGQTHTGTTS
# Columns and labels:
# Test in all cases: SPR
# [1] = biological target: hAPN ectodomain E745A mutant (human, UniProt P15144 62-963, E745A)
# Sequence of hAPN ectodomain E745A mutant (P15144 62-963 E745A): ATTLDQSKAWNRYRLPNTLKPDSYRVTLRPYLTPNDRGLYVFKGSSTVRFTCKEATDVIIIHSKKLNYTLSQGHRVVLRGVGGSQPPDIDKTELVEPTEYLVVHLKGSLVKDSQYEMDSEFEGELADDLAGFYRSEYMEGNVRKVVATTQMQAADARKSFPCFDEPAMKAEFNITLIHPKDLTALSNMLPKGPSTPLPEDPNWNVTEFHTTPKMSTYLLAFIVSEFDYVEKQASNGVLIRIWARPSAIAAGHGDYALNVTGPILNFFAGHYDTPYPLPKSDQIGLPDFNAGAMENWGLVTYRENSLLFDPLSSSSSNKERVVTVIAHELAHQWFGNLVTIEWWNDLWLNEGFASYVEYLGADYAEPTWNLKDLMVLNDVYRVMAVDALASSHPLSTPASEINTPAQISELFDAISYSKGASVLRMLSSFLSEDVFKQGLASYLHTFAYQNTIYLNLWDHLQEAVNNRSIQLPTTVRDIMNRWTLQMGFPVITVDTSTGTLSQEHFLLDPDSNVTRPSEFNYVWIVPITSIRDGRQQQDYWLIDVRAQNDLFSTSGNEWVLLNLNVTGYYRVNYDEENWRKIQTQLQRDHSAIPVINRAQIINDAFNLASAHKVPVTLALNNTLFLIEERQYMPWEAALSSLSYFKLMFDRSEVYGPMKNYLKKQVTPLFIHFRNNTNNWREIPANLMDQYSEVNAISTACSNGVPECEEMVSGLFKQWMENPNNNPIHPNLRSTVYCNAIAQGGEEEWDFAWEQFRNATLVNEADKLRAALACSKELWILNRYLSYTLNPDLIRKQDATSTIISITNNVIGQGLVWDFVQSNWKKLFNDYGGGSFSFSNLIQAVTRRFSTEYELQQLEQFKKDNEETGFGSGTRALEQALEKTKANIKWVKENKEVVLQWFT
# [2] = biological target: hAPN ectodomain E426A mutant (human, UniProt P15144 62-963, E426A)
# [3] = biological target: T1, porcine aminopeptidase N (pAPN) …
# [4] = biological target: hAPN ectodomain H789A mutant (human, UniProt P15144 62-963, H789A)
# [5] = biological target: hAPN ectodomain W429A mutant (human, UniProt P15144 62-963, W429A)
# Sequence of hAPN ectodomain W429A mutant (P15144 62-963 W429A): as the sequence (P15144 62-963 E745A) above, with W368A, A684E counted along it
# [6] = biological target: T2, pAPN ectodomain K374A mutant
binder,measurement,setting,value
B1,Kd,[1],3.06 µM
same,Kd,[2],334 µM
same,Kd,[3],44.2 µM
same,Kd,[4],6.25 µM
same,Kd,[5],127 µM
same,Kd,[6],> 1 mM
